In the DeepSol protein solubility set:

Assay: soluble on expression in E. coli; label from the status in PepcDB or PDB records

Sequence | soluble on expression in E. coli
MAHHHHHHMPRDTHVLRFKVLTVECAALPDGQQYTVMYHRGNSNRSTPCYTAQGGVINFASMPEGAAVVHFKAGHGGGRFAPKYIRFMIEEYTRGMPRRLVGETEADCTQVLKDYGASGSGILTVVFRLYGTTAKMRIAVLVYPEHAPPLSFDGLIDPSEVAAPLPTQAVKVMSRGEAMMILMGLETLLERRRAMKAEGQSLPQSREEKKLAELEKRRKALVGSEGLATEVIKTRCEEVVAVQYTALARKHRNNFIGQTAAYLREMAMLAGEDFIGDDGDSSGDTVLEQLNRVNRSIEEVEMQVKKLEEEQAALRRIQHKVDVMAELTVSLDKVAALQQKMQVLKESRTALTEAMKKQAAKKNTPLAREVTAINTRIAALNAEQQQMAPRIQHMVAVAASHVVKWARSKNPPELDTKSCIDSLHETGGNARNPVDDLFSDAGKPKTSKEQSMLDDVQRKQVVEALKGLETTTAPLSTRSPTSASSSSGHRTPRDLFADAGLPSMGDFSDTKPKEEETATKRKGDTSTTPLHEDPLKPSGLGVDMFSAKPAPAAASNVPAGLPSMNDFMRSSTASRQQSAQPTFDFGSILQTSSVSPQMGGGFVLEPQPSEAAASSFAAAAPSAVSGAYQTKDYPYYDEMDDFTVPPDAADSKNYGAVEITGGIFSFQDDTSSPAYVAPRPTFDFGPSSGGDDRPSGVGVTVSPAETFSFGGGAADELSTNNPRNSSDNPYTGITNLPTYNFSS | soluble
MSLVKKGAALLMVATMALSSAACSNSKTEGKPEVQAKVAPVEKNGDKTVIRFWHAMGGKTQGVLDGLVADYNKSQNKYEIKAEFQGTYEESLTKFRTMSATKEAPALVQSSEITTKYMIDSKKITPIDSWIKKDKYDTSKLEKAITNYYSVDGKMYSMPFNSSTPVLIYNKDAFAKAGLDPEKAPKTYAELQEAAKKLTIKEGGNVKQYGFSMLNYGWFFEELLATQGALYVDNENGRKDAAKKAVFNGKEGQKVFGMLDDLNKAGALGKYGASWDDIRAAFQSGQVAMYLDSSAGVRDLIDASKFNVGVSYIPYPEDSKQNGVVIGGASLWMTNMVSEETQQGAWDFMKYLTKPDVQAKWHTATGYFSINPDAYNEPLVKEQYEKYPQLKVTVDQLQATKQSPATQGALISVFPESRDAVVKALEAMYDGKNSKEALDEAAKATDRAISISARTSQK | not soluble
MPRSTWFKALLLLVALWAPLSQAETGWQPIQETIRKSDKDNRQYQAIRLDNGMVVLLVSDPQAVKSLSALVVPVGSLEDPEAYQGLAHYLEHMSLMGSKKYPQADSLAEYLKMHGGSHNASTAPYRTAFYLEVENDALPGAVDRLADAIAEPLLDKKYAERERNAVNAELTMARTRDGMRMAQVSAETINPAHPGSKFSGGNLETLSDKPGNPVQQALKDFHEKYYSANLMKAVIYSNKPLPELAKMAADTFGRVPNKESKKPEITVPVVTDAQKGIIIHYVPALPRKVLRVEFRIDNNSAKFRSKTDELITYLIGNRSPGTLSDWLQKQGLVEGISANSDPIVNGNSGVLAISASLTDKGLANRDQVVAAIFSYLNLLREKGIDKQYFDELANVLDIDFRYPSITRDMDYVEWLADTMIRVPVEHTLDAVNIADRYDAKAVKERLAMMTPQNARIWYISPKEPHNKTAYFVDAPYQVDKISAQTFADWQKKAADIALSLPELNPYIPDDFSLIKSEKKYDHPELIVDESNLRVVYAPSRYFASEPKADVSLILRNPKAMDSARNQVMFALNDYLAGLALDQLSNQASVGGISFSTNANNGLMVNANGYTQRLPQLFQALLEGYFSYTATEDQLEQAKSWYNQMMDSAEKGKAFEQAIMPAQMLSQVPYFSRDERRKILPSITLKEVLAYRDALKSGARPEFMVIGNMTEAQATTLARDVQKQLGADGSEWCRNKDVVVDKKQSVIFEKAGNSTDSALAAVFVPTGYDEYTSSAYSSLLGQIVQPWFYNQLRTEEQLGYAVFAFPMSVGRQWGMGFLLQSNDKQPSFLWERYKAFFPTAEAKLRAMKPDEFAQIQQAVITQMLQAPQTLGEEASKLSKDFDRGNMRFDSRDKIVAQIKLLTPQKLADFFHQAVVEPQGMAILSQISGSQNGKAEYVHPEGWKVWENVSALQQTMPLMSEKNE | soluble
MSDLYRNKKILAPMVRAGRTPLRLLCLKYGADLCYTEEIVDKKLIEATRVVNEALGTIDYRNGDDIILRLAPEEKGRCILQIGTNSGEKAAKIAQIVGDDVAGIDVNMGCPKPFSIHCGMGAALLTQTEKIVDILTSLKSAAKVPVTCKIRVLDDPEDTLKLVQEIEKCRVSALGVHGRRRDERQPDKCRIDEIRDVAQAVQSIPVISNGLSDEIEQYSDFEKYQLLTETSSTMIARKALSTPSIFRREGCLDKYEDIRNFLELACQYDESYTMTKYVVQRILGADQEYDPRGKATVAAGSVLQICKAFGMEDVYDKWRDERKKKQSKKRARVDDDGVYNIEVSFPLKRLKNSVGFSPTPKMVLHDYCVETKIPKATYEVVKRDDKRFVATACIGDKKYRSGIGQPNLRMAEQVAALAALHGMNIRNLLVGNWEEE | not soluble
MRKLWPLALLLAACGAQDVGAGLDPLRLTATSLPPAYLGEPYSASLAAEGGVRPYSFTLDGKLPEGLSFQGGRLFGVPKEKGSFPLLLTVEDAAKNSRAQRLTLTVSDPPPPRLALVLPPAQVEGPFLLLARVEGREAVGFQMEVRLADLEPDLAGLKALSPAHLLDYDPATRLLRLDMAFAKPVKDREAFRFLLTPQKPLVPRLSPKVVFYDKEGKPLGQPLPRGKPFAELLRLAQAWGREGKALKEDLDGDGKVGEADLRLLAQGYFPKPETPSPEVPGGGEGQASGEEQAP | soluble
MVRDMKHTVEVMIPEAEIKARIAELGRQITERYKDSGSDMVLVGLLRGSFMFMADLCREVQVSHEVDFMTASSYGSGMSTTRDLKILKDLDEDIRGKDVLIVEDIIDSGNTLSKVREILSLREPKSLAICTLLDKPSRREVNVPVEFIGFSIPDEFVVGYGIDYAQRYRHLPYIGKVILLDE | soluble
MGSSHHHHHHSSGLVPRGSKITVNPESKAVLAGQFVKLCCRATGHPFVQYQWFKMNKEIPNGNTSELIFNAVHVKDAGFYVCRVNNNFTFEFSQWSQLDVCDIPESFQRSVDGVSESKLQICVEPTSQKLMPGSTLVLQCVAVGSPIPHYQWFKNELPLTHETKKLYMVPYVDLEHQGTYWCHVYNDRDSQDSKKVEIIIDELNNLGHPDNKEQTTDQ | soluble
MEEETIKVENLDDSITIDRNPVPLAFCARPTLPAKIGMKTEDGIVDQLLDLVDPITVVNPTEIRQAPSLKSFGCDTESEFEFSGDDSDFENINDLRAGALDSDEEFDRLVKFSAKIIEKTHKSEYPDENGKKQRKPKKSQKTRNVHEYDDMPPLENLSIECKGQLLEFGFVSKVVDCQVVIISTCTEVLDFDSFLFDQKGNALGQIYDIFGQVKNPQYVIRFNSCEEASMIPIDMKVYYAPTEEQFSKTPFKGLNLAAANRDAIKSLNRRIDHQEAVAKAGETMAQVGIGSDVEFSDDEAEKEFKRTTYTQPASQMSRGFDSNRGRKRDRRGGQKVRFSAQNPPARSDNLGPIPQQPSAPPPPARPAQSTESNPYAEFGCHSGFNGRFGI | not soluble
RPQNTNSWQKDSIEGIDIMLAMDVSGSMQAMDFKPNRLEAAKDVAISFINNRPNDNIGMVTFAGESFTQCPLTTDHTVLLNMVQDLQ | soluble
MSLTTPTMIAAVVEEANGPFVLRKLARPQPAPGQVLVQIEASGTNPLDAKIRAGEAPHAQQPLPAILGMDLAGTVVAVGPEVDSFRVGDAVFGLTGGVGGLQGTHAQFAAVDARLLASKPAALTMRQASVLPLVFITAWEGLVDRAQVQDGQTVLIQGGGGGVGHVAIQIALARGARVFATARGSDLEYVRDLGATPIDASREPEDYAAEHTAGQGFDLVYDTLGGPVLDASFSAVKRFGHVVSCLGWGTHKLAPLSFKQATYSGVFTLHTLLANEGLAHFGEMLREADALVQTGKLAPRLDPRTFSIAEIGSAYDAVLGRNDVPRQRGKIAITVEPQFNLHEQREGHHHHHH | soluble
MDINGGGATLPQALYQTSGVLTAGFAQYIGVGSGNGKAAFLNNDYTKFQAGVTNKNVHWAGSDSKLSATELSTYASAKQPTWGKLIQVPSVGTSVAIPFNKSGSAAVNLSVQELCGVFSGRINTWDGISGSGRTGPIVVVYRSESSGTTELFTRFLNAKCNAETGNFAVTTTFGTSFSGGLPAGAVAATGSQGVMTALAAGDGRITYMSPDFAAPTLAGLDDATKVARVGKNVATNTQGVSPAAANVSAAIGAVPVPAAADRSNPDAWVPVFGPDNTAGVQPYPTSGYPILGFTNLIFSQCYADATQTTQVRDFFTKHYGASNNNDAAITANAFVPLPTAWKATVRASFLTASNALSIGNTNVCNGIGRPLLEAAHHHHHH | soluble
FPPRIVNPVVTPVTDTLTDTTDTKEYAVQTAIPDQRKVARPRADALRNRERIVLAAREMFVEHGPDVPLDDVARRAGVGNATVYRNFPDRDALVREVVCSVMDRTARAAELALAETGDAFEALERFVHASADERISALCPMVASTFDQHHPDLEAARGRVERLVAEVMDRAKAAGQLRGDVGVGDLMIAAAQLSRPPAGTGCVNADRFVHRHLQLFLDGLRAPARSVLPGAAVTLEDLRRPCDQ | not soluble
MQFYQPPAQQHLARSTPPPNFAQPYGMGMRPHEEETRQIMNLDSQQTHSSSPTSSWNQPYGQMSNPYQQRGPSLYAPPGPPVMHQNGPPGVVPTSNPYYQPPVPPQHHHMQPQAPMMSPGMHGQQQQQPYYNTQSPLTGTPPSMSYGTPQIPAPPPTSNGSAPMFNFSKPRNSNEGSLTNGGGGAAHRRKKHNDLSSPRYSSNSNEDVDGSVFPDMADFPLLDVVQSKAKKDAGRKPCRPHLCEQSRMLISRVCHFHREFIKRLPARHPLVNSPFSKPDQWTSQIMGISLATVRKCIDMAVDEEVFTRCTDKNLVNLTPSERAEREELLSKLSTVFEDEKSLGAGTAGMTIAEYSPRRSYSNTLLRQSTDDKSSTSSYNANGGEYGGSTETTLLNLDDHSNSSKDYGMTPTTPAAPVASSVTSDLGGGGGQVFEEIGAIGGGMSTESSLDDKSAVKIPKRGRPCKAPGTTATNKSTKRKESQDGGQEVGGPVEDKDDHEKKTEDEDETNEETEKIEVQQADQAEREDDAASSEGTNRSETATPELATDTTAVAKKTRSAAARRKNTKTVDDEFAGATKKKRGSVTAATAGIGGDDENSDHKMVTRARSRQP | not soluble
MGSSHHHHHHSSGRENLYFQGVLGAGCIGGSIALKLKEKHHVTAFDRDEETMKALEENGIETVSKESDLYDTDLLVLALPMSVEERFLKETDFSGKILDVASVKTPFMEIARERGLNFTGGHPMAGNERKGKSGWDREMFDGKIFFLCSLDGKEDGMIENIVKDLGARPLWIDYRIHDEIVAAVSHVQYLISLSARYVGKPFEEYAGPGYLSNTRLSKQNMEMALDMIRYNKENILKYLENARNFLNVLYHLTEKEDFENLKKVIREVI | soluble
MSLGETFTITKMNVERIKQEERLFCKSCASPVMIKAGQIKIPHFAHEKTMKCAFASEGESEEHLAAKKQIMAWYCYQSIPVEVESYFPEIKRQADIFVNGKAVIEFQRSSISISEMIQRTMDYLSIGLEVHWILGQVVRKEKGRICLSAFQQAFIQSDKKLGYHFWHYSTEREICTLYYHLTFEKGNRFFASEMKFSMKAPFSEWKKKLARIITRHAYVKRDRELERQKICFYYAKFKKHGQFMQKLFNAGYYLHYLPKEIGVDLEEQFLVITPAVEWQFDLWEKFFKGLEKGDTFSECCFFESFQSVVTQILTIWLSPNESLKLGKSYLSYLIGEGVLSTIPDNRYRVKRKMVFTNTRAAHIEGHHHHHH | not soluble
MEFFGETWRRELAAEFEKPYFKQLMSFVADERSRHTVYPPADQVYSWTEMCDIQDVKVVILGQDPYHGPNQAHGLCFSVQKPVPPPPSLVNIYKELCTDIDGFKHPGHGDLSGWAKQGVLLLNAVLTVRAHQANSHKDRGWETFTDAVIKWLSVNREGVVFLLWGSYAHKKGATIDRKRHHVLQAVHPSPLSAHRGFLGCKHFSKANGLLKLSGTEPINWRAL | soluble
GGSGPLKPEEHEDILNKLLDPELAQSERTEALQQLRVNYGSFVSEYNDLEEKVAHAKEENLNMHQMLDQTLLELNNM | soluble
